In patent US20190161539A1 (published 2019):

B1: humanized 266 antibody (Hu266) (antibody, human IgG1, kappa, V domains shown)
VH: EVQLVESGGGLVQPGGSLRLSCAASGFTFSRYSMSWVRQAPGKGLELVAQINSVGNSTYYPDTVKGRFTISRDNAKNTLYLQMNSLRAEDTAVYYCASGDYWGQGTLVTVSS
VL: DVVMTQSPLSLPVTLGQPASISCRSSQSLIYSDGNAYLHWFLQKPGQSPRLLIYKVSNRFSGVPDRFSGSGSGTDFTLKISRVEAEDVGVYYCSQSTHVPWTFGQGTKVEIKR
notes: Mature antibody expressed from pVk-Hu266 and pVg1-Hu266 in Sp2/0 cells; also called exemplified anti-Aβ antibody
B2: Exemplified anti-Tau antibody (having both HCs of SEQ ID NO.68 and both LCs of SEQ ID NO.67) (antibody, human IgG4 S228P, kappa, F234A L235A, V domains shown)
VH: EVQLVQSGAEVKKPGESLKISCKGSGYTFSNYWIEWVRQMPGKGLEWMGEILPGSDSIKYEKNFKGQVTISADKSISTAYLQWSSLKASDTAMYYCARRGNYVDDWGQGTLVTVSS
VL: EIVLTQSPGTLSLSPGERATLSCRSSQSLVHSNQNTYLHWYQQKPGQAPRLLIYKVDNRFSGIPDRFSGSGSGTDFTLTISRLEPEDFAVYYCSQSTLVPLTFGGGTKVEIKR
notes: also called Exemplified anti-Tau mAb; exemplified tau monoclonal antibody

Legend:
Aβ1-42 = assay: method only given as 'essentially as described above' (KD=Kd/Ka)
[1] = target: T1, β-amyloid peptide (1-42) conjugated to BSA (C-terminal Cys43 coupled to maleimide-activated bovine serum albumin); assay: competition ELISA on coated Aβ1-42-BSA against biotinylated Mu266, first set of three experiments
T1 construct: Coated on the ELISA plate; BSA carrier not written as a chain; also called Aβ1-42-BSA conjugate; Aβ1-42-Cys-BSA conjugate
Procedure: (§1) The Aβ₁₋₄₂-BSA conjugate was prepared by dissolving 7.5 mg of Aβ₁₋₄₂-Cys₄₃ (C-terminal cysteine Aβ₁₋₄₂, AnaSpec) in 500 μL of dimethylsulfoxide, and then immediately adding 1,500 μL of distilled water. Two (2) milligrams of maleimide-activated bovine serum albumin (Pierce) was dissolved in 200 μL of distilled water. The two solutions were combined, thoroughly mixed, and allowed to stand at room temperature for two (2) hours. A gel chromatography column was used to separate unreacted peptide from Aβ₁₋₄₂-Cys-BSA conjugate.
(§2) After washing the wells with phosphate buffered saline (PBS) containing 0.1% Tween 20 (Washing Buffer) using an ELISA plate washer, the wells were blocked by adding 300 μL of SuperBlock reagent (Pierce) per well. After 30 minutes of blocking, the wells were washed Washing Buffer and excess liquid was removed.
(§3) As a background control, 100 μl of ELISA Buffer was added. The ELISA plate was incubated at room temperature for 90 min. After washing the wells with Washing Buffer, 100 μl of 1 μg/ml HRP-conjugated streptavidin (Cat #21124, Pierce) was added to each well. […] Absorbance was read at 415 nm. The absorbances were plotted against the log of the competitor concentration, curves were fit to the data points (using Prism) and the IC50 was determined for each antibody using methods well-known in the art.

[2] = target: T1, β-amyloid peptide (1-42) conjugated to …; assay: competition ELISA on coated Aβ1-42-BSA against biotinylated Mu266, second set of three experiments
Procedure: as §1, §2, §3

[3] = target: T2, aggregate tau fibrils purified from AD brain homogenates (human, UniProt P10636-8 2-441, limits assumed); assay: ELISA on coated tau fibrils purified from AD brain
T2 construct: Brain-derived aggregates; also called Purified AD Tau Fibrils; purified tau fibrils
T2 sequence (P10636 other isoform, or with tags, fused parts or gaps limits assumed): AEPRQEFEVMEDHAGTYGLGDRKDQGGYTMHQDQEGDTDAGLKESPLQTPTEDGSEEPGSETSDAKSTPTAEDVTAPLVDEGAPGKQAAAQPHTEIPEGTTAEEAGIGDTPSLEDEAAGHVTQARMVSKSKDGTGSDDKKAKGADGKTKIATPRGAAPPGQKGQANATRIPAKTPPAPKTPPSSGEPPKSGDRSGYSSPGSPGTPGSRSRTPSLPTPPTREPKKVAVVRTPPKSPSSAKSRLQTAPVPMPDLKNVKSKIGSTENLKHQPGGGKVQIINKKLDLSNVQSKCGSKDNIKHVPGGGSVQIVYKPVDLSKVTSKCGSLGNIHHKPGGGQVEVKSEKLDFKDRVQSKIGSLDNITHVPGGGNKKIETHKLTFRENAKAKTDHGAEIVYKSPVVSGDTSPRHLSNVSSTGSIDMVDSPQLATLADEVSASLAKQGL

human tau aggregates = target: T3, human tau aggregates (human, UniProt P10636 2-758); assay: SPR (BIACORE 2000), antibody captured on protein A, 1:1 fit
T3 construct: also called fibril tau; tau fibril aggregate
T3 sequence (P10636 other isoform, or with tags, fused parts or gaps limits assumed): as above
Procedure: (§4) Except as noted, all reagents and materials are from BIACORE® AB (Upsala, Sweden). A CM5 chip containing immobilized protein A (generated using standard NHS-EDC amine coupling) on all four flow cells (FC) is used to employ a capture methodology. Antibody samples are prepared at 0.5 μg/mL by dilution into running buffer. Monomeric tau and fibril tau are prepared to concentrations of 2000, 1000, 500, 250, 125, 62.5, 31.25, 15.63, 7.82, 3.91, 1.95, and 0 (blank) nM by dilution into running buffer. Each analysis cycle consists of: (1) capturing antibody samples on separate flow cells (FC2, FC3, and FC4); (2) injection of 250 μL (300 sec) of either monomeric tau or tau fibril aggregate over respective FC at a rate of 50 μL/min; (3) return to buffer flow for 20 mins. to monitor dissociation phase; (4) regeneration of chip surfaces with 25 μL (30 sec) injection of glycine, pH1.5; (5) equilibration of chip surfaces with a 50 μL (60 sec) injection of HBS-EP+.
Data of binding to tau aggregate is processed using standard double-referencing and fit to a 1:1 binding model using Biacore 2000 Evaluation software, version 4.1, to determine the association rate (kₒₙ, M⁻¹s⁻¹ units), dissociation rate (koff, s⁻¹ units), and Rₘₐₓ (RU units). The equilibrium dissociation constant (KD) was calculated from the relationship KD=koff/kₒₙ, and is in molar units. […] Therefore, KD for binding to monomeric tau is obtained by using a steady state binding fit model from plotting the concentration of antigen versus the response unit.

[4] = target: T4, human monomeric (native or non-aggregate) tau (human, UniProt P10636 2-758); assay: SPR (BIACORE 2000), antibody captured on protein A, steady state fit
T4 construct: also called Monomeric Tau; monomeric tau
T4 sequence (P10636 other isoform, or with tags, fused parts or gaps limits assumed): as above
Procedure: as §4
Data of binding to tau aggregate is processed using standard double-referencing and fit to a 1:1 binding model using Biacore 2000 Evaluation software, version 4.1, to determine the association rate (kₒₙ, M⁻¹s⁻¹ units), dissociation rate (koff, s⁻¹ units), and Rₘₐₓ (RU units). The equilibrium dissociation constant (KD) was calculated from the relationship KD=koff/kₒₙ, and is in molar units. […]

Binder | Kd (Aβ1-42) | IC50 [1] | IC50 [2] | EC50 [3] | Kd (human tau aggregates) | koff (human tau aggregates) | kon (human tau aggregates) | Kd [4]
B1 | 4 pM | 7.5 µg/mL | 4 µg/mL | – | – | – | – | –
B2 | – | – | – | 6.8 pM | < 220 pM | < 1e-05 s⁻¹ | 45900 M⁻¹ s⁻¹ | 235000 pM
